Assay results taken from patent US10131920B2, “Nucleic acid molecules” (MEDIMMUNE LIMITED, priority 2013, dated 2018).

Columns and labels:
[1] = test system: GFPY40 reporter in 3H7 cells; test: Amber suppression-dependent GFP expression (GFPY40 reporter), transient transfection of 3H7 cells, flow cytometry; type: cell-based; conditions: three days; for GFP MFI in the absence of nnAA, FIG. 6: no nnAA; for GFP MFI, FIG. 11: 1 ug GFPY40 and 1 ug tRNA expression vector, lys-azide
Description: To assess the function of the tRNA variants, an in vitro assay was established where cells are transiently transfected with a tRNA construct and a reporter construct encoding GFP containing an amber codon interrupting its reading frame (GFPY40). HEK293 cells stably expressing pylRS were transiently transfected with various tRNA constructs (1 ug) and the GFPY40 reporter (1 ug). In the absence of elements that support amber suppression, a truncated GFP protein is generated and the cell is not fluorescent. However, the introduction of a functional tRNA and the presence of a nnAA that supports amber suppression allows for the production of full length GFP resulting in fluorescent cells. The level of GFP expression reflects the efficiency of amber suppression and is quantified by flow cytometry. tRNA genes encoding wild type tRNApyl (WT tRNA), or containing mutations in the B-box (B tRNA—SEQ ID No 9), in both the A and B box (A2B tRNA—SEQ ID No 10), or in the A box (A1 tRNA-SEQ ID No 7; or A2 tRNA SEQ ID No 11), all under control of the H1 promoter were generated by site directed mutagenesis and assayed. The H1 promoter ensured that the variants were expressed and allowed us to examine the functional effects of the mutations introduced into the tRNA genes. In addition a sample transfected with GFPY40 alone was generated to establish background GFP levels. The transfected cells were grown in presence of the aminoacid analogue lys azide (2 mM) and incubated for 18 hours. GFP fluorescence was then assayed by flow cytometry and mean fluorescence intensity determined for each sample. Data were analysed with FCS Express and the mean fluorescence intensity of each sample determined using markers that constrain the data set to cells showing fluorescence above negative controls. […] The constructs thus are functional and may contain the necessary genetic sequence to enable the expression of the tRNA also in the absence of an upstream promoter element such as the H1 promoter.
Having established that the B mutation introduced into the pyltRNA sequence enabled expression of the tRNA that supported amber suppression we then asked whether this mutation affected the orthogonality of the tRNA and led to the incorporation of natural amino acids. To do this 3H7 cells were transiently transfected with expression constructs encoding WT-tRNA, B-tRNA, H1-tRNA and H1-B tRNA along with the GFPY40 reporter. Transfected cells were grown in the presence of 2 mM lys azide or absence of nnAA as indicated (FIG. 6), and GFP expression assessed by flow cytometry after three days. In addition, a sample transfected only with GFPY40 was examined to determine background amber suppression levels in the absence of tRNA. […] A comparison of GFP expression between the WT tRNA (MFI 33,781) and tRNA B (232,505) lacking extragenic promoter elements confirms that the B mutation generates a functional intragenic promoter. Indeed, the B tRNA construct enabled a seven-fold increase in the level of amber suppression dependent expression of GFP over WT tRNA.
We also tested the utility of a bicistronic tRNA expression construct for its ability to express tRNApyl. Here, the murine tRNA Glu and tRNA Asp were utilized. In each case, multiple repeats of the constructs were generated to increase activity (3×Glu-pyl and 2×Asp-pyl). Here, 3H7 cells were transiently transfected with 1 ug of the reporter construct GFPY40 and 1 ug of the indicated tRNA expression vectors (FIG. 11) and incubated with lys-azide for three days. Data were collected by flow cytometry and mean fluorescence intensities for each sample were plotted. […] The construct consisting of the 7SL WT tRNA (MFI=312) was included as a metric for low efficiency. In addition cell lines containing only the GFPY40 reporter were used as negative controls (MFI=0).

[2] = test system: GFPY40 reporter (GFP containing an amber codon) in HEK293 cells stably expressing pylRS; test: Amber suppression-dependent GFP expression (GFPY40 reporter), transient transfection, flow cytometry; type: cell-based; conditions: for GFP MFI, FIG. 9: 1 ug GFPY40 reporter and 1 ug tRNA expression plasmid; for GFP MFI, single copy tRNA, FIG. 7 / GFP MFI, tandem copies of tRNA, FIG. 7: cells expressing WTpylRS, after two days; for GFP MFI, tandem copies of tRNA, FIG. 7: single vector containing two copies in tandem; for GFP MFI, FIG. 10: cells stably expressing WTpylRS, lys azide; for GFP MFI, FIG. 8: 1 ug PCR product of each construct, lys azide nnAA
Description: To assess the function of the tRNA variants, an in vitro assay was established where cells are transiently transfected with a tRNA construct and a reporter construct encoding GFP containing an amber codon interrupting its reading frame (GFPY40). HEK293 cells stably expressing pylRS were transiently transfected with various tRNA constructs (1 ug) and the GFPY40 reporter (1 ug). In the absence of elements that support amber suppression, a truncated GFP protein is generated and the cell is not fluorescent. However, the introduction of a functional tRNA and the presence of a nnAA that supports amber suppression allows for the production of full length GFP resulting in fluorescent cells. The level of GFP expression reflects the efficiency of amber suppression and is quantified by flow cytometry. tRNA genes encoding wild type tRNApyl (WT tRNA), or containing mutations in the B-box (B tRNA—SEQ ID No 9), in both the A and B box (A2B tRNA—SEQ ID No 10), or in the A box (A1 tRNA-SEQ ID No 7; or A2 tRNA SEQ ID No 11), all under control of the H1 promoter were generated by site directed mutagenesis and assayed. The H1 promoter ensured that the variants were expressed and allowed us to examine the functional effects of the mutations introduced into the tRNA genes. In addition a sample transfected with GFPY40 alone was generated to establish background GFP levels. The transfected cells were grown in presence of the aminoacid analogue lys azide (2 mM) and incubated for 18 hours. GFP fluorescence was then assayed by flow cytometry and mean fluorescence intensity determined for each sample. Data were analysed with FCS Express and the mean fluorescence intensity of each sample determined using markers that constrain the data set to cells showing fluorescence above negative controls.
To begin to assess whether the tRNA mutations can support expression of the tRNA we assayed tRNA constructs encoding the wild type tRNA in the absence of the H1 promoter. Constructs encoding wild type tRNApyl (WT tRNA) or containing mutations in the B-box (B tRNA—SEQ ID No 9) or in both the A and B box (A2B; A2B tRNA—SEQ ID No 10) were assayed using our in vitro amber suppression assay described above. WT tRNA under control of the H1 promoter (H1-tRNA) was used as a positive control, and in addition one sample was transfected only with the GFPY40 reporter to illustrate background amber suppression in the absence of tRNA. The transfected cells were exposed to 2 mM lys-azide nnAA and cells incubated for three days. GFP expression was examined by flow cytometry and mean fluorescence intensity determined.
Two copies of the WT, B, or A2B tRNA were cloned in tandem to generate a single vector containing two copies of WT, B, or A2B tRNA. To assess the effect of increased gene doses by these constructs, cells expressing WTpylRS were transiently transfected with the tRNA constructs and the GFPY40 reporter construct and GFP expression assayed after two days.
The activity of each construct was assessed by transient transfection into cells stably expressing WT pylRS with the GFPY40 reporter as described above. For this experiment, 1 ug of a PCR product encoding each of the indicated constructs was used. In each case, cells were exposed to the lys azide nnAA for three days and GFP levels assayed by flow cytometry. Mean fluorescence intensities were determined for each sample and plotted (FIG. 8).

[3] = 2 mM lys-azide nnAA, three days

| Molecule | GFP MFI in the presence of lys-azide, FIG. 6 ([1]; 2 mM lys azide) | increase in amber suppression dependent expression of GFP over WT tRNA (FIG. 6) ([1]; 2 mM lys azide) | GFP MFI in the absence of nnAA, FIG. 6 [1] | GFP MFI, FIG. 9 [2] | GFP mean fluorescence intensity (MFI), FIG. 5 [2, 3] | fold higher expression of GFP than the wt tRNA construct (FIG. 5) [2, 3] | capacity to support amber suppression relative to H1 WT tRNA (FIG. 4) ([2]; all tRNA variants under control of the H1 promoter, 1 ug construct + 1 ug GFPY40, lys azide 2 mM, 18 hours) | GFP MFI, single copy tRNA, FIG. 7 [2] | GFP MFI, tandem copies of tRNA, FIG. 7 [2] | GFP MFI, FIG. 10 ([2]; three days) | GFP MFI, FIG. 8 ([2]; three days) | GFP MFI, FIG. 11 [1] |
| --- | --- | --- | --- | --- | --- | --- | --- | --- | --- | --- | --- | --- |
| B tRNA: tRNApyl Methanosarcina mazei with A52C mutation (B-box) (nucleic acid, expressed or natural sequence) DNA: GGAAACCTGATCATGTAGATCGAATGGACTCTAAATCCGTTCAGCCGGGTTCGATTCCCGGGGTTTCCG | 232,505 | seven-fold | 42,104 | 89,869 | 410,131.1 | four-fold | support amber suppression, albeit at a lower level than the WT tRNA | 67,489 | 110,941 | 329 | – | – |
| WT tRNA: wild type tRNApyl gene of Methanosarcina mazei without extragenic promoter (nucleic acid, listed as Methanosarcina mazei, expressed or natural sequence, wild type tRNApyl gene of Methanosarcina mazei without extragenic promoter) DNA: GGAAACCTGATCATGTAGATCGAATGGACTCTAAATCCGTTCAGCCGGGTTAGATTCCCGGGGTTTCCG | 33,781 | – | – | 25,459 | 114,478.1 | – | – | 18,002 | 20,617 | – | 117,626 | – |
| 2×Asp: two tandem repeats of the murine tRNA asp-pyl tRNA bicistronic pair (nucleic acid, Synthetic sequence 2x tRNAasp-pyl DNA construct including 2 repeats of the bicistronic construct tRNAasp-pyl, two tandem repeats of the murine tRNA asp-pyl tRNA bicistronic pair) DNA: TCCTCGTTAGTATAGTGGTGAGTATCCCCGCCTGTCACCCGCGAGACCGGCGTTCCATTCCCCGACGGGGAGACGTAGCCCCACCTCGGAAACCTGATCATGTAGATCGAATGGACTCTAAATCCGTTCAGCCGGGTTAGATTCCCGGGGTTTCCGTAGCGTCCTTTTTGGAAAGACAAGGTGCGTCGTAGTCGGCGTTGTCCTCGTTAGTATAGTGGTGAGTATCCCCGCCTGTCACCCGCGAGACCGGCGTTCCATTCCCCGACGGGGAGACGTAGCCCCACCTCGGAAACCTGATCATGTAGATCGAATGGACTCTAAATCCGTTCAGCCGGGTTAGATTCCCGGGGTTTCCGTAGCGTCCTTTTT | – | – | – | – | – | – | – | – | – | – | – | 419 |
| 3×Glu: three tandem repeats of the murine tRNA glu and pyltRNA bicistronic pair (nucleic acid, Synthetic sequence 3x tRNAglu-pyl DNA construct including 3 repeats of the bicistronic construct tRNAglu-tRNApyl, three tandem repeats of the murine tRNA glu and pyltRNA bicistronic pair) DNA: GCCGTGACCTCGGGCCGACGCTCCCTGGTGGTCTAGTGGTTAGGATTCGGCGCTCTCACCGCCGCGGCCCGGGTTCGATTCTCGGTCAGGGAAGCCTCTCCCCCAAACCTCGGAAACCTGATCATGTAGATCGAATGGACTCTAAATCCGTTCAGCCGGGTTAGATTCCCGGGGTTTCCGCTTCTTCCTCTTTTCTGCACCCTCACTTCAGCTGAGCCGTGACCTCGGGCCGACGCTCCCTGGTGGTCTAGTGGTTAGGATTCGGCGCTCTCACCGCCGCGGCCCGGGTTCGATTCTCGGTCAGGGAAGCCTCTCCCCCAAACCTCGGAAACCTGATCATGTAGATCGAATGGACTCTAAATCCGTTCAGCCGGGTTAGATTCCCGGGGTTTCCGCTTCTTCCTCTTTTCTGCACCCCAATATTGCCGTGACCTCGGGCCGACGCTCCCTGGTGGTCTAGTGGTTAGGATTCGGCGCTCTCACCGCCGCGGCCCGGGTTCGATTCTCGGTCAGGGAAGCCTCTCCCCCAAACCTCGGAAACCTGATCATGTAGATCGAATGGACTCTAAATCCGTTCAGCCGGGTTAGATTCCCGGGGTTTCCGTAGCGTCCTTTTTGGAAAGACAAGTGGGTGGCGAATTCGATATC | – | – | – | – | – | – | – | – | – | – | – | 419 |
| H1-tRNA: WT tRNApyl under control of the H1 promoter, positive control (nucleic acid, Synthetic sequence H1 tRNA-WT construct) DNA: AATATTTGCATGTCGCTATGTGTTCTGGGAAATCACCATAAACGTGAAATCCCTATCAGTGATAGAGACTTATAAGTTCCCTATCAGTGATAGAGACACCAGGAAACCTGATCATGTAGATCGAATGGACTCTAAATCCGTTCAGCCGGGTTAGATTCCCGGGGTTTCCGGACAAGTGCGGTTTTTTT | 347,958 | – | 33,452 | 241,901 | 1,004,228.00 | – | – | – | – | 453 | 828,503 | 453 |
| H1-B tRNA: tRNA-B (A52C) under control of the H1 promoter (nucleic acid, Synthetic sequence H1 tRNA-B construct, tRNA-B (A52C) under control of the H1 promoter) DNA: AATATTTGCATGTCGCTATGTGTTCTGGGAAATCACCATAAACGTGAAATCCCTATCAGTGATAGAGACTTATAAGTTCCCTATCAGTGATAGAGACACCAGGAAACCTGATCATGTAGATCGAATGGACTCTAAATCCGTTCAGCCGGGTCAGATTCCCGGGGTTTCCGGACAAGTGCGGTTTTTTT | 313,386 | – | 36,217 | – | – | – | – | – | – | – | – | – |
